Measured values taken from US20210009683A1.
Numbering of substitutions follows the chain as printed. Names may count otherwise. Each block holds one binder with its values, some of them ahead of it.

Target: T1, CLEC-2 on washed mouse platelet (mouse) (UniProt Q9JL99)
T1 sequence (looked up): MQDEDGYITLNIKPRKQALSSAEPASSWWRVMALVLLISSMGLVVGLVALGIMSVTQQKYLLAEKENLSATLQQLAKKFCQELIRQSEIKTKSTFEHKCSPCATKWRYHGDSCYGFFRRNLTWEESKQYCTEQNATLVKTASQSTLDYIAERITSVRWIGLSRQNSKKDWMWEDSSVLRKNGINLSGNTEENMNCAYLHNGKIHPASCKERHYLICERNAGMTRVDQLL
Assay: cell-based or functional assay

platelet aggregation-starting time (light transmittance, washed mouse platelet mixed with CHO cells): 6 min
B1: wild-type human Aggrus expressed in CHO cells (CHO/Aggrus-WT) (ligand, UniProt Q86YL7 23-162, looked up)
chain: ASTGQPEDDTETTGLEGGVAMPGAEDDVVTPGTSEDRYKSGLTTLVATSVNSVTGIRIEDLPTSESTVHAQEQSPSATASNVATSHSTEKVDGDTQTTVEKDGLSTVTLVGIIVGVLLAIGFIGAIIVVVMRKMSGRYSP

delay of the start of platelet aggregation against CHO/Aggrus-WT: 8 min | platelet aggregation-starting time (light transmittance, washed mouse platelet mixed with CHO cells): 14 min
B2: Aggrus-D48A expressed in CHO cells (CHO/Aggrus-D48A) (ligand, human, UniProt Q86YL7 23-162, looked up)
chain: B1 chain with D26A
